Test results as given in US20230355784A1.
Square brackets hold non-standard residues; d marks the D form. Ends that are not written are not given here.

B1: SADC with albumin scaffold carrying the tagged V5 peptide (peptide, part only; not given: albumin scaffold, not shown: large carriers)
peptide: IPNPLLGLDGGSGDYKDDDDKGK[BiotinAca]GC
modifications: also: bound to albumin scaffold
B2: SADC with transferrin scaffold carrying the tagged V5 peptide (peptide, part only; not given: transferrin scaffold, not shown: large carriers)
peptide: IPNPLLGLDGGSGDYKDDDDKGK[BiotinAca]GC
modifications: also: bound to transferrin scaffold
B3: SADC with haptoglobin scaffold carrying the tagged V5 peptide (peptide, part only; not given: haptoglobin scaffold, part only)
peptide: IPNPLLGLDGGSGDYKDDDDKGK[BiotinAca]GC
modifications: also: bound to haptoglobin scaffold

These binders were tested against mAB anti V5 (Thermo Scientific) (mouse) (assay: 1 ug/ml mouse anti V5 with increasing SADC, capture on streptavidin plate, bound IgG by ELISA).

Row | Binder | EC50 [µg/mL]
1 | B1 | 0.0279
2 | B2 | 0.007
3 | B3 | 0.0555
